Test results: publication PMC1885261, “Structure of the dimeric N-glycosylated form of fungal β-N-acetylhexosaminidase revealed by computer modeling, vibrational spectroscopy, and biochemical studies” (BMC Structural Biology, 2007)

Substrate: CC(=O)N[C@H]1[C@H](Oc2ccc([N+](=O)[O-])cc2)O[C@H](CO)[C@@H](O)[C@@H]1O
Assay: 4-nitrophenyl substrate hydrolysis assay
Assay type: biochemical, Aspergillus oryzae
Conditions: substrate concentrations around Km

| Protein | Km (native N-glycosylated form) [µM] | Km (deglycosylated form) [µM] |
| --- | --- | --- |
| β-N-acetylhexosaminidase (native form) (Aspergillus oryzae) (protein, native enzyme purified from culture medium of A. oryzae; secreted, fully N-glycosylated (six sites), dimer; GH20) chain 1: VGVNPLPAPREISWGSSGPKSIAGELQLRTDSDSADGIVADAWNRAWETIVALRWVPAATEAPISSFEPFPTPTAGAS chain 2: ASNSLQYVNVQVKDIEADLQHGVDESYTLDVEEDSDTITINAETVWGALHAFTTLQQLVISDGHGGLIIEEPVNIKDSPLYPYRGIMLDTGRNFVSLPKIFEQLEGMSLSKLNVLHWHIDDAQSWPIWVDVYPEMVKDAYSPHEIYSRNDVRNIVNYARARGIRVIPEIDMPSHSSSGWKQVDPEMVTCTDSWWSNDDWPLHTAVEPNPGQLDIIYNKTYEVVGNVYKELSDIFPDHWFHVGGDEIQPNCFNFSTHVTKWFAEDPSRTYHDLAQYWVDHAVPIFQNYSQERRLVMWEDIALSADNAHDVPKNIVMQSWNNGLEYISNLTARGYDVIVSSSDFLYLDCGHGGFVTNDPRYNVMANPDANTPNFNYGGNGGSWCAPYKTWQRIYDYDFTLNLTETQAKHIIGATAPLWGEQVDDINVSSMFWPRAAALAELVWSGNRDANGNKRTTEMTQRILNFREYLVANGVQAQALVPKYCLQHPHACDLYRNQAAIQ | 450 |  |
| deglycosylated β-N-acetylhexosaminidase (Aspergillus oryzae) (protein, same polypeptide as P1, native purification, enzymatically N-deglycosylated under native conditions (endoglycosidase H, leaving core GlcNAc, or N-glycanase)) chain 1: VGVNPLPAPREISWGSSGPKSIAGELQLRTDSDSADGIVADAWNRAWETIVALRWVPAATEAPISSFEPFPTPTAGAS chain 2: ASNSLQYVNVQVKDIEADLQHGVDESYTLDVEEDSDTITINAETVWGALHAFTTLQQLVISDGHGGLIIEEPVNIKDSPLYPYRGIMLDTGRNFVSLPKIFEQLEGMSLSKLNVLHWHIDDAQSWPIWVDVYPEMVKDAYSPHEIYSRNDVRNIVNYARARGIRVIPEIDMPSHSSSGWKQVDPEMVTCTDSWWSNDDWPLHTAVEPNPGQLDIIYNKTYEVVGNVYKELSDIFPDHWFHVGGDEIQPNCFNFSTHVTKWFAEDPSRTYHDLAQYWVDHAVPIFQNYSQERRLVMWEDIALSADNAHDVPKNIVMQSWNNGLEYISNLTARGYDVIVSSSDFLYLDCGHGGFVTNDPRYNVMANPDANTPNFNYGGNGGSWCAPYKTWQRIYDYDFTLNLTETQAKHIIGATAPLWGEQVDDINVSSMFWPRAAALAELVWSGNRDANGNKRTTEMTQRILNFREYLVANGVQAQALVPKYCLQHPHACDLYRNQAAIQ |  | 710 |
